Binding result and Kd data for four molecules are collected here from paper PMC10212944.

Data set [1] has as its target T1, RPA (wild type) (Homo sapiens, UniProt P27694;P15927;P35244 1-616;1-270;1-121). Nature of the data set: fluorescence anisotropy; stoichiometric binding; Stopped flow: 30 mM HEPES pH 7.8, 100 mM KCl, 5 mM MgCl2, 6% glycerol, 1 mM b-ME, 25 C; anisotropy: 50 mM Tris-acetate pH 7.5, 50 mM KCl, 5 mM MgCl2, 1 mM DTT. The conditions noted are these: protein: recombinant; copies: 1;1;1; label: 5'-FAM.

Data set [2] deals with T2, RPA S384D (Homo sapiens, UniProt P27694;P15927;P35244 1-616;1-270;1-121, S384D). Nature of the data set: fluorescence anisotropy; stoichiometric binding; same as WT; Stopped flow: 30 mM HEPES pH 7.8, 100 mM KCl, 5 mM MgCl2, 6% glycerol, 1 mM b-ME, 25 C; anisotropy: 50 mM Tris-acetate pH 7.5, 50 mM KCl, 5 mM MgCl2, 1 mM DTT. The conditions noted are these: protein: recombinant; copies: 1;1;1; label: 5'-FAM. For orientation: In fluorescence polarisation assays a small probe gives low polarisation when free and higher when bound to something large.

For data set [3], the target named is T1, RPA (wild type). Nature of the data set: stopped-flow Trp fluorescence (koff/kon); kon 5.2e10 M-1 s-1, koff 39 s-1 as printed; Stopped flow: 30 mM HEPES pH 7.8, 100 mM KCl, 5 mM MgCl2, 6% glycerol, 1 mM b-ME, 25 C; anisotropy: 50 mM Tris-acetate pH 7.5, 50 mM KCl, 5 mM MgCl2, 1 mM DTT. The conditions noted are these: protein: recombinant; copies: 1;1;1.
For data set [4], the target named is T2, RPA S384D. Nature of the data set: size exclusion chromatography; major 1:1, minor 2:1 protein:DNA; Stopped flow: 30 mM HEPES pH 7.8, 100 mM KCl, 5 mM MgCl2, 6% glycerol, 1 mM b-ME, 25 C; anisotropy: 50 mM Tris-acetate pH 7.5, 50 mM KCl, 5 mM MgCl2, 1 mM DTT. As to conditions: protein: recombinant; copies: 1;1;1. For orientation: SEC sorts molecules by how far they enter the pores of the column.

Data set [5] addresses T1, RPA (wild type). As to the kind of experiment: competition (facilitated exchange, stopped-flow FRET); displaces Cy3/Cy5-RPA, kFE 1.8 s-1; Stopped flow: 30 mM HEPES pH 7.8, 100 mM KCl, 5 mM MgCl2, 6% glycerol, 1 mM b-ME, 25 C; anisotropy: 50 mM Tris-acetate pH 7.5, 50 mM KCl, 5 mM MgCl2, 1 mM DTT. As to conditions: protein: recombinant; copies: 1;1;1.
In data set [6] the target is T2, RPA S384D. Nature of the data set: competition (facilitated exchange, stopped-flow FRET); displaces Cy3/Cy5-RPA, kFE 0.9 s-1; Stopped flow: 30 mM HEPES pH 7.8, 100 mM KCl, 5 mM MgCl2, 6% glycerol, 1 mM b-ME, 25 C; anisotropy: 50 mM Tris-acetate pH 7.5, 50 mM KCl, 5 mM MgCl2, 1 mM DTT. The conditions noted are these: protein: recombinant; copies: 1;1;1.

T1 sequence (P27694 whole entry, chain 1 of 3): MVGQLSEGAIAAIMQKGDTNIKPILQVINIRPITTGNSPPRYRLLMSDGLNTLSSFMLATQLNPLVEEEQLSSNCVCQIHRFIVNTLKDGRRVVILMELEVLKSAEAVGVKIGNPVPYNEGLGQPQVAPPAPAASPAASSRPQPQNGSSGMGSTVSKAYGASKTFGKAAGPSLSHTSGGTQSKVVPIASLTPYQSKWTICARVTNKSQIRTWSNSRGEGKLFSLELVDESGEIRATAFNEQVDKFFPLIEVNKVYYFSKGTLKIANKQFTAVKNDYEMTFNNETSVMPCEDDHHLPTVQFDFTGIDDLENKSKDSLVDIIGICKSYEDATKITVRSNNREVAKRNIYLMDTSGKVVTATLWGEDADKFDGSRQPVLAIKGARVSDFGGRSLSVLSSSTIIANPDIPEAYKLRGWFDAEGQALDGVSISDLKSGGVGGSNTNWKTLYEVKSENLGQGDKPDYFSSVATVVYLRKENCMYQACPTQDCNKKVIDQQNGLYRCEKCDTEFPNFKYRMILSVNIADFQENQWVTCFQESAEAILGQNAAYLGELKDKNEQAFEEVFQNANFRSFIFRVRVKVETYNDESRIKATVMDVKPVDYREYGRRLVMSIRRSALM
T1 sequence (P15927 whole entry, chain 2 of 3): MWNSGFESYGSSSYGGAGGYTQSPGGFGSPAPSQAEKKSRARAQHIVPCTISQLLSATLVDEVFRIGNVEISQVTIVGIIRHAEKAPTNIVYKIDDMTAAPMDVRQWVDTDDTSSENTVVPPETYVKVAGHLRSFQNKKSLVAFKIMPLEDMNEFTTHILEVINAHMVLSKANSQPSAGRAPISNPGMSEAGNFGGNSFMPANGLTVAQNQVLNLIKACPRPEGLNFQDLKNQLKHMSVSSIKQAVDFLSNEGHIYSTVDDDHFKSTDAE
T1 sequence (P35244 whole entry, chain 3 of 3): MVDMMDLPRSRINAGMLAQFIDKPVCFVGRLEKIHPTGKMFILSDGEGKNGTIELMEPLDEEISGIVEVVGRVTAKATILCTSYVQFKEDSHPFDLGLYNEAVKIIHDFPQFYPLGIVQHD
T2 sequence (P27694 whole entry S384D, chain 1 of 3): as the sequence (P27694 whole entry, chain 1 of 3) above, with S384D counted along it
T2 sequence (P15927 whole entry, chain 2 of 3): as the sequence (P15927 whole entry, chain 2 of 3) above
T2 sequence (P35244 whole entry, chain 3 of 3): as the sequence (P35244 whole entry, chain 3 of 3) above

As to TTTTTTTTTTTTTTTTTTTTTTTTTTTTTTTTTTTTTTTT (ssDNA) [5'-FAM-(dT)40], the binding result with RPA (wild type) [1] and with RPA S384D [2] was “binds” in each case.
For orientation: Kd means the concentration at which binding is half-saturated. Turning to TTTTTTTTTTTTTTTTTTTTTTTTTTTTTTTTTTT (ssDNA) [(dT)35], the Kd with RPA (wild type) [3] turned out to be 0.75 ± 0.4 nM. In the data set with RPA S384D [4], the binding result is given as “binds”.
With TTTTTTTTTTTTTTTTTTTT (ssDNA) [5'-FAM-(dT)20], the binding result with RPA (wild type) [1] and with RPA S384D [2] was “binds” in each case.

B1: (dT)97 (ssDNA)
DNA: TTTTTTTTTTTTTTTTTTTTTTTTTTTTTTTTTTTTTTTTTTTTTTTTTTTTTTTTTTTTTTTTTTTTTTTTTTTTTTTTTTTTTTTTTTTTTTTTT
Take B1: the binding result with RPA (wild type) [5] and with RPA S384D [6] was “binds” each time.
